Our source for the decrease in proliferation of CD8+ T cells primed with CD5+ DCs (CFSE dilution) values is patent publication US20190216897A1.

The assay addresses IL-18 (human) (UniProt Q14116). Put plainly: cell-based or functional assay.

B1: neutralizing anti-IL-18 mAb (125-2H; MLB) (antibody, from another filing, V domains shown)
VH: EIQLQQSGPELVKPGASVKVSCKASGYSFTDYFIYWVKQSHGKSLEWIGDIDPYNGDTSYNQKFRDKATLTVDQSSTTAFMHLNSLTSEDSAVYFCARGLRFWGQGTLVTVSA
VL: DIQMTQSPSSLSASLGERVSLTCRASQDIGSKLYWLQQEPDGTFKRLIYATSSLDSGVPKRFSGSRSGSDYSLTISSLESEDFVDYYCLQYASSPYTFGGGTKLAIKR
B1: the decrease in proliferation of CD8+ T cells primed with CD5+ DCs (CFSE dilution) stood at 40%.
